# Square brackets hold non-standard residues; d marks the D form. Ends that are not written are not given here. Cit = NC(=O)NCCC[C@H](N)C(=O)O
# Assays:
# PS621 = target: T1, PS621 (Kluyveromyces lactis, UniProt O60014, E174T/N105S/N176F/R116K/S153T/V146T); experiment: Dynamic single-molecule sequencing, recognition by PS621; type: binding; details: for PW of ADMA-X / RS ADMA-X: ADMA peptide; for PW of ADMA-X / PW of R-X / RS ADMA-X / RS R-X: average of 10 sequencing reactions; for PW of R-X / RS R-X: unmodified arginine peptide; for Binding with the recognizer PS621 / Median interpulse duration (IPD) of arginine recognition by PS621: P38MAPKa-derived peptides; for Binding with the recognizer PS621: residue at position 2; for RS ADMA-X / RS R-X: RS duration
# T1 construct: PS621; […]
# Description: PTM detection involved isolating peptides and subjecting them to a real-time single-molecule protein sequencing reaction. Proteins were first digested into peptide fragments and conjugated C-terminally to macromolecular linkers. The peptide complexes were immobilized at the bottom of nanoscale wells on a semiconductor chip, resulting in single peptide molecules with exposed N-termini ready for sequencing. During the sequencing reaction, the surface-immobilized peptides were exposed to a solution containing dye-labeled NAA recognizers that bound on and off to their cognate NAAs with characteristic kinetic properties. Aminopeptidases in solution sequentially removed individual NAAs to expose subsequent amino acids for recognition. Fluorescence lifetime, intensity, and kinetic data were collected in real time and analyzed to determine amino acid sequence and PTM content.
# The trace-level output included distinct pulsing regions called recognition segments (RSs); each RS corresponded to a period of time between aminopeptidase cleavage events during which an NAA recognizer bound on and off to its exposed target NAA. Chemical modifications to a target NAA or to a nearby downstream amino acid can modulate recognizer affinity, resulting in a characteristic change in the average pulse duration (PD) during an RS relative to an unmodified peptide. These modifications can also influence the rate of aminopeptidase cleavage of an NAA, resulting in a characteristic change in average duration of the corresponding RS.
# Synthetic peptides corresponding to residues 69 to 76 of P38MAPKa were generated in three versions containing either arginine, ADMA, or SDMA at position 2: YRELRLLK (SEQ ID NO: 834), YRADMAELRLLK (SEQ ID NO: 835), and YRSDMAELRLLK (SEQ ID NO: 836). Each peptide was sequenced using three recognizers—PS610 (F, Y, W), PS961 (L, I, V), and PS621 (R)—and data were analyzed to identify RSs, determine the mean PD of each RS, and characterize the kinetic signature of each peptide.
# In this example, sequencing reactions were performed using PS621 (R), PS610 (FYW), and PS961 (LIV) recognizers for 9 pairs of peptides. Each pair comprised one peptide comprising an unmodified arginine residue followed by a non-arginine amino acid (referred to as an R-X peptide) and one peptide having an identical sequence except that the unmodified arginine was modified to be ADMA (referred to as an ADMA-X peptide).
# PS610 = experiment: Dynamic single-molecule sequencing, recognition by PS610; type: binding, A. tumefaciens; details: for Pulse Width: recognizer PS610, recognition of the N-terminal amino acid; for Median pulse duration of tyrosine recognition by PS610: P38MAPKa-derived peptides, PS610, PS961, PS621; for Median PD: peptide LAQFASIAAYASDDD, PS610 and PS961, PhTET2 and PhTET3
# Description: The semiconductor chip was placed in the sequencing device and a chip check was performed to test electronic circuit function and to optimize laser coupling alignment. The chip was then removed from the device socket and the chip was washed twice with 50 μL of 70% isopropanol, followed by four washes with 30 μL of wash buffer (50 mM MOPS pH 8.0, 60 mM potassium acetate, 50 mM glucose, 20 mM magnesium acetate, and surfactant mix) through a flow cell attached to the chip. A second chip check was then performed. […] The chip was then washed six times with wash buffer, followed by addition of an imaging solution (wash buffer with 5 mM Trolox and an oxygen scavenging system). The laser was unblocked and the occupancy percentage (target 10-30%, Poisson distributed) was recorded by acquiring a photobleaching signal from a fluorophore attached to the peptide complex during 5 min of laser illumination. […] The laser was then blocked briefly and aminopeptidases were added to the sequencing reaction via the flow cell and mixed thoroughly (final concentration 2-8 μM PhTET2 and/or 20-80 μM PhTET3, as indicated according to the experiment). The laser was then unblocked, and data was recorded for 10 hours. For all runs, 30 μL of mineral oil was added to fluid reservoirs at each port of the flow cell to prevent evaporation during the run.
# (§1) The measured signal on-chip comprises various noise components, the most dominant one being due to fluorescent emissions from diffusing recognizers in the reaction chamber. The pulse caller algorithm for a given reaction chamber starts by estimating the statistical properties of this background noise component. Once an estimate within certain error bounds has been established, the algorithm works in an online fashion observing new frames of data as they are generated. At each point in time, the algorithm maintains state indicating whether the signal is due to the background component only or a pulse from a recognizer-NAA interaction is being observed. The state transition from background to pulse is triggered using an edge detection test where the shift in signal is expected to be significant with respect to the background component's statistical distribution. The state transition from pulse to background is triggered when a small window of the most recent frames of the signal appears to conform to the background component's distribution again. The algorithm maintains an updated model of the background component as new background frames are observed. This provides robustness against drift in the signal intensity together with a feedback control loop that maintains a stable optical coupling of the laser into the chip based on any such detected drift. As detected pulses can be due to true recognizer-to-dipeptide interaction events as well as other occasional transient noise spikes, a downstream filter layer is employed to test the significance of pulse events based on their duration, intensity, and noise patterns within the context of the full timeline of the run and the entire dataset of reaction chambers.
# Initial regions are determined by performing a sliding window calculation of pulse rate along the time dimension of a series of pulses. Regions with a mean pulse rate >1 pulse/min are then subdivided according to a greedy bisection approach. Here, the pulses on the left and right of each potential split are assessed for statistically significant deviation in any of four separate pulse properties—intensity, bin ratio, pulse duration, and interpulse duration—using a Mann-Whitney U Test. To define RSs, the split point with the lowest p-value for any of the four properties is used to sub-divide the region and the process continues until no regions remain with a candidate split point with p-value <10^−5 in any comparison. In this manner, transitions from one RS to the next in a region of continuous pulsing are determined a priori on the basis of changes in fluorescence properties of pulsing kinetics.
# PS961 = experiment: Dynamic single-molecule sequencing, recognition by PS961; type: binding, Planctomycetes; details: for Median PD, recognition of N-terminal leucine by PS961: peptides RLAFAYPDDD, RLIFAYPDDD, RLVFAYPDDD; for RS mean PD, N-terminal leucine by PS961 / RS mean duration for leucine recognition: leucine followed by threonine or phosphothreonine
# Description: The semiconductor chip was placed in the sequencing device and a chip check was performed to test electronic circuit function and to optimize laser coupling alignment. The chip was then removed from the device socket and the chip was washed twice with 50 μL of 70% isopropanol, followed by four washes with 30 μL of wash buffer (50 mM MOPS pH 8.0, 60 mM potassium acetate, 50 mM glucose, 20 mM magnesium acetate, and surfactant mix) through a flow cell attached to the chip. A second chip check was then performed. The laser was then blocked via an integrated software-controlled shutter, peptide complex was added to a final concentration of 1-10 nM and mixed thoroughly, and the chip was incubated for 15 min. The chip was then washed six times with wash buffer, followed by addition of an imaging solution (wash buffer with 5 mM Trolox and an oxygen scavenging system). The laser was unblocked and the occupancy percentage (target 10-30%, Poisson distributed) was recorded by acquiring a photobleaching signal from a fluorophore attached to the peptide complex during 5 min of laser illumination. For NAA recognition-only assays, after peptide loading, labeled recognizer was added to a final concentration of 50 nM PS610, 100 nM PS691, or 250 nM PS961 (as indicated according to the experiment), and data was recorded for 10 hours. For dynamic sequencing assays, after peptide loading, a mixture of labeled recognizers was added to obtain final concentrations of 50 nM PS610, 100 nM PS691, and 250 nM PS961. Data was recorded for 15 min. The laser was then blocked briefly and aminopeptidases were added to the sequencing reaction via the flow cell and mixed thoroughly (final concentration 2-8 μM PhTET2 and/or 20-80 μM PhTET3, as indicated according to the experiment). The laser was then unblocked, and data was recorded for 10 hours. For all runs, 30 μL of mineral oil was added to fluid reservoirs at each port of the flow cell to prevent evaporation during the run.
# as §1
# Initial regions are determined by performing a sliding window calculation of pulse rate along the time dimension of a series of pulses. Regions with a mean pulse rate >1 pulse/min are then subdivided according to a greedy bisection approach.
# Chain of PS961 (as listed by the source): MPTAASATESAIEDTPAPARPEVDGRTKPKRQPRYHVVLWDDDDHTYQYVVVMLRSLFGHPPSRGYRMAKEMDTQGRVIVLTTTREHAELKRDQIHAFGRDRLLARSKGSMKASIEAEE
# T1 sequence (O60014 other isoform, or with tags, fused parts or gaps N105S/R116K/V146T/S153T/E174T/N176F): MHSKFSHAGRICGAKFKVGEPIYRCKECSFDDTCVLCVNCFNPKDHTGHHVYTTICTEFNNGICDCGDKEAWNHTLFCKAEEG
substance,measurement,setting,value
LRADMAAAFAYPDDDK [QP743],PW of ADMA-X,PS621,0.19 s
YCitIAFAYPDDDK (Y[Cit]IAFAYPDDDK-NH2; also: C-terminal azidolysine (general statement for all synthetic peptides)) [QP1031],Pulse Width,PS610,1.12 s
RLIFAYPDDD,"Median PD, recognition of N-terminal leucine by PS961",PS961,2.22 s
LRAAFAYPDDDK [QP747],PW of R-X,PS621,<0.12 s
FCitLAFAYPDDDK (F[Cit]LAFAYPDDDK-NH2; also: C-terminal azidolysine (general statement for all synthetic peptides)) [QP1029],Pulse Width,PS610,5.24 s
YRSDMAELRLLK (YRELRLLK) [P38MAPKa peptide with symmetric dimethylarginine at position 2],Median pulse duration of tyrosine recognition by PS610,PS610,1.48 s
same,Binding with the recognizer PS621,PS621,no binding
LRADMATAFAYPDDDK [QP945],PW of ADMA-X,PS621,<0.06 s
"RLTFIAYPDDD (not fully specified (residue 3, C-terminus); also: all synthetic peptides contained C-terminal Fmoc-azidolysine)","RS mean PD, N-terminal leucine by PS961",PS961,1.2 s
same,RS mean duration for leucine recognition,PS961,8.1 min
LRADMALAFAYPDDDK [QP729],PW of ADMA-X,PS621,0.48 s
same,RS ADMA-X,PS621,48.5 min
LRIAFAYPDDDK [QP749],RS R-X,PS621,15.4 min
same,PW of R-X,PS621,0.28 s
RLAFAYPDDD,"Median PD, recognition of N-terminal leucine by PS961",PS961,1.29 s
LRADMAVAFAYPDDDK [QP946],PW of ADMA-X,PS621,0.32 s
same,RS ADMA-X,PS621,33.8 min
LRADMAYAFAYPDDDK [QP742],PW of ADMA-X,PS621,0.25 s
same,RS ADMA-X,PS621,39.2 min
RLVFAYPDDD,"Median PD, recognition of N-terminal leucine by PS961",PS961,4.21 s
LRADMAIAFAYPDDDK [QP745],PW of ADMA-X,PS621,0.32 s
same,RS ADMA-X,PS621,46.9 min
LRQAFAYPDDDK [QP941],PW of R-X,PS621,<0.06 s
LRSAFAYPDDDK [QP748],PW of R-X,PS621,<0.12 s
LRTAFAYPDDDK [QP942],PW of R-X,PS621,<0.06 s
LAQFASIAAYASDDD,Median PD,PS610; listed as FAS,1.43 s
same,Median PD,PS610; listed as YAS,0.66 s
same,Median PD,"PS961; peptide LAQFASIAAYASDDD, PS610 and PS961, PhTET2 and PhTET3",2.70 s
YRIAFAYPDDDK (YRIAFAYPDDDK-NH2; not fully specified (residue 2); also: all synthetic peptides contained C-terminal Fmoc-azidolysine) [QP1030],Pulse Width,PS610,0.77 s
LRADMAEAFAYPDDDK [QP939],PW of ADMA-X,PS621,0.34 s
LRVAFAYPDDDK [QP943],RS R-X,PS621,25.5 min
same,PW of R-X,PS621,0.41 s
"YRADMAE (YRELRLLK) [YRADMAELRLLK, P38MAPKa peptide with asymmetric dimethylarginine at position 2]",Median pulse duration of tyrosine recognition by PS610,PS610,1.47 s
same,Median interpulse duration (IPD) of arginine recognition by PS621,PS621,5.82 s
same,Binding with the recognizer PS621,PS621,binding
YRELRLLK,Median pulse duration of tyrosine recognition by PS610,PS610,0.69 s
same,Median interpulse duration (IPD) of arginine recognition by PS621,PS621,10.05 s
same,Binding with the recognizer PS621,PS621,binding
LREAFAYPDDDK [QP938],PW of R-X,PS621,<0.06 s
LRYAFAYPDDDK [QP746],RS R-X,PS621,9.6 min
same,PW of R-X,PS621,0.18 s
LRADMAQAFAYPDDDK [QP944],PW of ADMA-X,PS621,0.21 s
LRADMASAFAYPDDDK [QP744],PW of ADMA-X,PS621,0.55 s
RLpTFIAYPDDD,"RS mean PD, N-terminal leucine by PS961",PS961,0.3 s
same,RS mean duration for leucine recognition,PS961,130 min
"RLMFAYPDDD (not fully specified (residue 3, C-terminus); also: all synthetic peptides contained C-terminal Fmoc-azidolysine)","Median PD of leucine recognition, first population of traces",PS961; leucine followed by methionine (LM),0.86 s
same,"Median PD of leucine recognition, second population of traces","PS961; methionine not recognized, oxidized (LMo)",0.35 s
FRLAFAYPDDDK (FRLAFAYPDDDK-NH2; not fully specified (residue 2); also: all synthetic peptides contained C-terminal Fmoc-azidolysine) [QP1028],Pulse Width,PS610,4.94 s

# — US20230213527A1, “COMPOSITIONS AND METHODS FOR POLYPEPTIDE ANALYSIS” (Quantum-Si Incorporated, priority 2021, published 2023)
